Sequences and labels used below:
B1: CMRF35-like molecule 6 (Homo sapiens), Q08708 (parent)
chain: MTARAWASWRSSALLLLLVPGYFPLSHPMTVAGPVGGSLSVQCRYEKEHRTLNKFWCRPPQILRCDKIVETKGSAGKRNGRVSIRDSPANLSFTVTLENLTEEDAGTYWCGVDTPWLRDFHDPIVEVEVSVFPAGTTTASSPQSSMGTSGPPTKLPVHTWPSVTRKDSPEPSPHPGSLFSNVRFLLLVLLELPLLLSMLGAVLWVNRPQRSSRSRQNWPKGENQ
partner: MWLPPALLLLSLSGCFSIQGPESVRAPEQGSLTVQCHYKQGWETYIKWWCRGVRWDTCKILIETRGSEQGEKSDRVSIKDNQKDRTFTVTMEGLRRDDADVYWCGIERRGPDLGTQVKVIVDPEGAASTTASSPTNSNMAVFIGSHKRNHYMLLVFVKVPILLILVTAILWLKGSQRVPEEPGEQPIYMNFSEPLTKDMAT
B2: CMRF35-like molecule 6 (Homo sapiens), Q08708 (parent)
chain: B1 chain
B3: CMRF35-like molecule 7 (Homo sapiens), A8K4G0 (parent)
chain: B1 partner
partner: B1 chain

In one experiment the parent is B1. As to conditions: with clm7_human CD300LB, A8K4G0.
On to E191V, for which the “effect of a mutation on the interaction” value is listed as “with no effect”.

Variants of B2 are the subject of the next experiment. As to conditions: with fcerg_human FCER1G.
For the variant E191V, the “effect of a mutation on the interaction” value is reported as “with no effect”.

Variants of B3 are the subject of another experiment. To be noted: with clm6_human CD300C, Q08708.
For W55G, the “effect of a mutation on the interaction” value was “with no effect”.
In the case of D112M, the “effect of a mutation on the interaction” value is on record as “with no effect”.
Regarding E63S, the “effect of a mutation on the interaction” value is given as “with no effect”.
Turning to C50G, the “effect of a mutation on the interaction” value was “with no effect”.
On to K158L, for which the “effect of a mutation on the interaction” value is listed as “with no effect”.
For the variant W103G, the “effect of a mutation on the interaction” value is on record as “with no effect”.

The values above are taken from IntAct's records for PubMed 20959446.
